Results as given in patent US20040002450A1 (published 2004).
Non-standard residues stand in square brackets, D forms with d. No end group written: not given here. sY = N[C@@H](Cc1ccc(OS(=O)(=O)O)cc1)C(=O)O

Columns and labels:
Y1 scFv [1] = molecular target: T1, Y1 scFv; assay: competitive FACS, 1 µg Y1-scFv on ~10^7 washed platelets, peptide 2.5 µM
T1 construct: Fully human scFv from the Nissim I phage library; Used biotin-labelled in the Western blots; also called scFv Y1; scFv-Y1
Description: (§1) ELISA assays were developed to evaluate the effect of the GPIb derived synthetic peptides on the binding of Y1 to purified glycocalicin. In addition, FACS analysis using washed platelets was carried out. To evaluate the importance of sulfated tyrosine within the Y1 binding site of GPIb, a competitive binding FACS analysis was used. Y1-scFv at a concentration of 1 μg was preincubated with different peptides at concentrations of 2.5 and 200 μM. After a preincubation for 30 minutes at room temperature the mixture was added to a tube containing ˜10⁷ washed platelets and the binding of Y1 to the washed platelets was assessed using polyclonal rabbit anti-scFv-PE. The inhibitory effect of the peptides compared to control binding (Y1 alone) was evaluated by measuring the residual binding of Y1 to washed platelets. The peptides and the results are described in Table 1 and are similar to results that were observed using the same peptides in an ELISA assay (Table B). In both assays, a control level of Y1 binding was determined, as follows. A polystyrene microtiter maxisorb plate was coated with (a) purified glycocalicin or (b) washed platelets. After extensive washing, 0.5 μg/well of Y1 was added. The plate was then incubated with rabbit anti-scFv followed by addition of anti rabbit —HRP (horse radish peroxidase) and HRP substrate. The level of anti rabbit —HRP binding was measured by the intensity of the color produced, and the level of anti rabbit —HRP binding correlates with the level of binding of anti Y1-scFv and the level of binding of Y1. The optical density was measured at A405. Each sample was assayed in duplicate, and the average was calculated.

Y1 scFv [2] = molecular target: T1, Y1 scFv; assay: competition ELISA on coated glycocalicin, 0.25 µg/well Y1, peptide 2.5 µM
Description: as §1
(§2) The effect of synthetic GPIbα peptides on Y1 binding to purified glycocalicin was evaluated by mixing varying concentrations of the peptides with a constant amount of Y1. […] The inhibitory effect of the peptides was evaluated by measuring the residual binding of Y1 to glycocalicin using rabbit anti Y1scFv and anti rabbit —HRP antibodies, as described for evaluation of Y1 binding in the absence of peptides.

Y1 scFv [3] = molecular target: T1, Y1 scFv; assay: competition ELISA on coated glycocalicin, 0.25 µg/well Y1, peptide 0.5 µM
Description: as §1, §2

Y1 scFv [4] = molecular target: T1, Y1 scFv; assay: competition ELISA on coated glycocalicin, 0.25 µg/well Y1, peptide 25 µM
Description: as §1, §2

Y1 scFv [5] = molecular target: T1, Y1 scFv; assay: competitive FACS, 1 µg Y1-scFv on ~10^7 washed platelets, peptide 200 µM
Description: as §1

PSGL-1 on KG-1 cells [6] = molecular target: T2, PSGL-1 on KG-1 cells (human, UniProt Q14242 42-412, sulfated tyrosines in the N-terminal site); assay: radio receptor assay on KG-1 cells, dimer as competitor
T2 construct: whole, on cells; results told for KG-1 cells are written against this molecule; also called P-Selectin Glycoprotein Ligand-1; CD162
T2 sequence (looked up): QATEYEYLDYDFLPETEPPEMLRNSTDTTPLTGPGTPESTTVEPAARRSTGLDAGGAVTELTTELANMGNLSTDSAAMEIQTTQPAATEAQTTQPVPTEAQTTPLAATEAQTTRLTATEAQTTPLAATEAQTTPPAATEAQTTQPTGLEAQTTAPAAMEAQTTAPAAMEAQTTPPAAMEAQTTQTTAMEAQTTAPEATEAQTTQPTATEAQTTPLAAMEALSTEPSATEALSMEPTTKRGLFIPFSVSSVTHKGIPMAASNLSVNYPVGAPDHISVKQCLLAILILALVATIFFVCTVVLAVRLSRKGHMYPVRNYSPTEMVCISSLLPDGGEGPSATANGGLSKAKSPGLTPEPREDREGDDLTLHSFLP

PSGL-1 on KG-1 cells [7] = molecular target: T2, PSGL-1 on KG-1 cells; assay: radioreceptor competition assay on KG-1 cells, 125I-Y1-IgG tracer
Description: (§3) The assay system involved the use of radioactive ligands that were prepared by iodination with ¹²⁵I using chloramine T on the Y1-IgG construct or the Bolton-Hunter (CONY1) reagent. The assay tubes contained 5×10⁶ KG-1 cells per 0.2 ml and a labeled tracer with varying amounts of unlabeled competitor, in PBS+0.1% BSA, pH 7.4. After one hour incubation with agitation at 4° C., the cells were thoroughly washed with cold buffer and taken for radioactivity counting.
For the radio receptor binding assay (RRA), 2 ng/tube of ¹²⁵I-Y1-IgG was used, and competition was performed with each of the three molecules.

PSGL-1 on KG-1 cells [8] = molecular target: T2, PSGL-1 on KG-1 cells; assay: second radioreceptor competition assay on KG-1 cells
Description: as §3
In a second RRA using labeled CONYL, a 100 ng/tube of ¹²⁵I-Y1-IgG was used, and competition was performed with each of the three molecules.

PSGL-1 on KG-1 cells [9] = molecular target: T2, PSGL-1 on KG-1 cells; assay: FACS on KG-1 cells, directly FITC-labelled

T1 sequence (scFv, as listed by the source): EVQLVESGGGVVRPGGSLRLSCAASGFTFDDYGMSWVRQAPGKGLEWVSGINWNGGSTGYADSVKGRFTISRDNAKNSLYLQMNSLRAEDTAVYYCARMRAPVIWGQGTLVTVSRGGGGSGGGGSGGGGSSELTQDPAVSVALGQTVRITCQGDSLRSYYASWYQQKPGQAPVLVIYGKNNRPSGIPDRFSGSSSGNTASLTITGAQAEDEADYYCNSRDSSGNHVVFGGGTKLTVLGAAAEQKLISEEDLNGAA

## TDL[sY]D[sY][sY]PEEDTE [P-2-S]
Y1 scFv [1]
  Residual Binding of Y1 (% of baseline) (Geo Mean): 61 % of baseline
Y1 scFv [2]
  Residual Binding of Y1 (% of baseline): 52 % of baseline
Y1 scFv [3]
  Residual Binding of Y1 (% of baseline): 78 % of baseline
Y1 scFv [4]
  Residual Binding of Y1 (% of baseline): 15 % of baseline
Y1 scFv [5]
  Residual Binding of Y1 (% of baseline) (Geo Mean): 7 % of baseline

## GDEGDTDL[sY]D[sY][sY]P [P-3-S]
Y1 scFv [1]
  Residual Binding of Y1 (% of baseline) (Geo Mean): 82 % of baseline
Y1 scFv [2]
  Residual Binding of Y1 (% of baseline): 67 % of baseline
Y1 scFv [3]
  Residual Binding of Y1 (% of baseline): 80 % of baseline
Y1 scFv [4]
  Residual Binding of Y1 (% of baseline): 21 % of baseline
Y1 scFv [5]
  Residual Binding of Y1 (% of baseline) (Geo Mean): 26 % of baseline

## REEGRQHFFLLEGRSSYS (also called negative control peptide) [EGR]
Y1 scFv [1]
  Residual Binding of Y1 (% of baseline) (Geo Mean): 96 % of baseline
Y1 scFv [2]
  Residual Binding of Y1 (% of baseline): 100 % of baseline
Y1 scFv [3]
  Residual Binding of Y1 (% of baseline): 121 % of baseline
Y1 scFv [4]
  Residual Binding of Y1 (% of baseline): 89 % of baseline
Y1 scFv [5]
  Residual Binding of Y1 (% of baseline) (Geo Mean): 119 % of baseline

B1: Y1-cys-kak (cysteine dimer) (other)
scFv: MEVQLVESGGGVVRPGGSLRLSCAASGFTFDDYGMSWVRQAPGKGLEWVSGINWNGGSTGYADSVKGRFTISRDNAKNSLYLQMNSLRAEDTAVYYCARMRAPVIWGQGTLVTVSRGGGGSGGGGSGGGGSSELTQDPAVSVALGQTVRITCQGDSLRSYYASWYQQKPGQAPVLVIYGKNNRPSGIPDRFSGSSSGNTASLTITGAQAEDEADYYCNSRDSSGNHVVFGGGTKLTVLGGGGCKAK
modifications: Homodimer held by an interchain disulfide between Cys243 of chain 1 and Cys243 of chain 2.
notes: also called Y1-cys-kak scFv; dimer Y1-cys-kak
PSGL-1 on KG-1 cells [6]
  fold efficiency against the monomer: 30 fold
PSGL-1 on KG-1 cells [7]
  Kd: ~40 nM
  fold higher affinity than CONY1: 30 fold
  fold lower affinity than the full Y1 antibody: 2 fold
PSGL-1 on KG-1 cells [8]
  Kd: ~50 nM
  fold higher affinity than CONY1: 20 fold
PSGL-1 on KG-1 cells [9]
  fold less material than the monomer: 10 fold
